Source: patent US20180355064A1 (published 2018)

Key:
[1] = molecular target: cynomolgus monkey CD3 epsilon 1-26_Fc fusion protein; experiment: SPR
[2] = molecular target: human CD3 epsilon 1-26_Fc fusion protein; experiment: SPR

B1: humanized 9G7 best-framework antibody (antibody, V domains shown)
VH: EVQLVESGGGLVQPGGSLRLSCAFSGLSLSTSGKGVGWIRQAPGKGLEWLAHIWWDDDKRYNPALKSRLTISKDTSKNTVYLQMNSLRAEDTAVYYCARIELGRSYVMDYWGQGTLVTVSS
VL: DIQMTQSPSSLSASVGDRVTITCRASQDVITSVAWFQQKPGKAPKLLIYSASYRYTGVPSRFSGSGSGTDFTLTISSLQPEDFATYYCQQHYTIPLTFGQGTKVEIKR
[1]
  Kd: 1 nM
[2]
  Kd: 0.4 nM

B2: humanized 9G7 best-fit antibody (antibody, V domains shown)
VH: QVTLKESGPTLVKPTQTLTLTCTFSGLSLSTSGKGVGWIRQPPGKALEWLAHIWWDDDKRYNPALKSRLTITKDTSKNQVVLTMTNMDPVDTATYYCARIELGRSYVMDYWGQGTLVTVSS
VL: DIQMTQSPSSLSASVGDRVTITCQASQDVITSVAWYQQKPGKAPKLLIYSASYRYTGVPSRFSGSGSGTDFTFTISSLQPEDIATYYCQQHYTIPLTFGQGTKLEIKR
[1]
  Kd: 3.2 nM
[2]
  Kd: 0.5 nM

B3: chimeric 9G7 antibody (antibody, V domains shown)
VH: QVTLKESGPGILQPSQTLSLTCSFSGLSLSTSGKGVGWIRQPSGKGLEWLAHIWWDDDKRYNPALKSRLTISKDTSSNQVFLKIASVDTADTATYYCARIELGRSYVMDYWGQGTTVTVSS
VL: DIVMTQSHKFMSTSVGDRVSISCKASQDVITSVAWFQQKPGQSPKLLIYSASYRYTGVPDRFTGSGSGTDFTFTISSVQAEDLAVYYCQQHYTIPLTFGAGTKLELKR
[1]
  Kd: 1 nM
[2]
  Kd: 0.4 nM
